In patent US10562947B2, “Compositions and methods for preventing or treating diseases, conditions or processes characterized by aberrant fibroblast proliferation and extracellular matrix deposition” (MOERAE MATRIX, INC., priority 2011, dated 2020):

Assays:
Experiment in all cases: Kinase Profiling Assay
Format in all cases: biochemical
Settings in all cases: 100 μM peptide
[1] = molecular target: T1, PTK5(h) (Homo sapiens, UniProt P42685)
T1 construct: purchased Millipore (IC50 Profiler Express service)
T1 sequence (P42685 whole entry): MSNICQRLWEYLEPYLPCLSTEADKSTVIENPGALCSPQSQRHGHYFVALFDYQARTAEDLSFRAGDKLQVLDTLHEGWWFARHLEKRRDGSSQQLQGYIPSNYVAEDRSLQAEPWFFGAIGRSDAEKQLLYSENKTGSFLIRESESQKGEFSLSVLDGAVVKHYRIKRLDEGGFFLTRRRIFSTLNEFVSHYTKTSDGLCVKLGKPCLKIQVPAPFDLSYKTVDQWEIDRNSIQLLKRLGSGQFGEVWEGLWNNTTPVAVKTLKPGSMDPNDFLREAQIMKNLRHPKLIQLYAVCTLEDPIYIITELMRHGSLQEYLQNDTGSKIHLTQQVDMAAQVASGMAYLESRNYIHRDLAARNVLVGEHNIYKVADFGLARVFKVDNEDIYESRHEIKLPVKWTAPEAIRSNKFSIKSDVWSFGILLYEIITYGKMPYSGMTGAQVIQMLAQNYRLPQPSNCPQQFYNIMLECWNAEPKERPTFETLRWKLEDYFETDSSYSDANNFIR
Outline: (§1)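 First, MK2 inhibitor peptides were applied to a panel of 266 human kinases; then each kinase's activity was measured in duplicate to assess off-target inhibition.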

[2] = molecular target: T2, TSSK2(h) (Homo sapiens, UniProt Q96PF2)
T2 sequence (Q96PF2 1-358): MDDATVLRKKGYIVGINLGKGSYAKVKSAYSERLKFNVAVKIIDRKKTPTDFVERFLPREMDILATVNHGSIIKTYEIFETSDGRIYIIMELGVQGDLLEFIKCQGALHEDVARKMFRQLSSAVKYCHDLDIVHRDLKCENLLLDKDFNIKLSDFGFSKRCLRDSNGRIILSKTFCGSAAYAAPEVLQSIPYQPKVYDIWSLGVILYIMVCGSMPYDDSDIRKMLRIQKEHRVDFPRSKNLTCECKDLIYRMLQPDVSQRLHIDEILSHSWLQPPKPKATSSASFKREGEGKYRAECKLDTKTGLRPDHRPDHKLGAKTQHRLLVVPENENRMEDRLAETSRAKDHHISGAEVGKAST
Outline: as §1

[3] = molecular target: T3, Bmx(h) (Homo sapiens, UniProt P51813)
T3 sequence (P51813 1-675): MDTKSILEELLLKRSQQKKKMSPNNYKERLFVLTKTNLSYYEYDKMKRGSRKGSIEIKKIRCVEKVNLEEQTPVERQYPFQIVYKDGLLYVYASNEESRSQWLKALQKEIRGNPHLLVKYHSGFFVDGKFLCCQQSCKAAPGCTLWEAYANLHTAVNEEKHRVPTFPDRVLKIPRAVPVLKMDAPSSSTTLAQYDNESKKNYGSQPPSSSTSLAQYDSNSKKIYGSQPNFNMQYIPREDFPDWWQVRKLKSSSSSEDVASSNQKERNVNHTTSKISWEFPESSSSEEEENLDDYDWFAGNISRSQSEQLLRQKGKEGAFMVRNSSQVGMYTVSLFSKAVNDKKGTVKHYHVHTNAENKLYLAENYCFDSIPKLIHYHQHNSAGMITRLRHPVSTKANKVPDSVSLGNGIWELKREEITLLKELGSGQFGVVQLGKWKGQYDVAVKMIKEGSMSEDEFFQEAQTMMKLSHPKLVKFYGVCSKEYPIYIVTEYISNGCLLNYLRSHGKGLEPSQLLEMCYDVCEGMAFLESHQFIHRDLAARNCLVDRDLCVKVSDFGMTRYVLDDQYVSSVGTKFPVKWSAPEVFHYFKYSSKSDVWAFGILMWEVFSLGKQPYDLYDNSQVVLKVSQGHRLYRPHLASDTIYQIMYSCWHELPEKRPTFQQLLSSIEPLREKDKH
Outline: as §1

[4] = molecular target: AMPKα1(h) (Homo sapiens, UniProt Q13131)
AMPKα1(h), sequence (Q13131 whole entry): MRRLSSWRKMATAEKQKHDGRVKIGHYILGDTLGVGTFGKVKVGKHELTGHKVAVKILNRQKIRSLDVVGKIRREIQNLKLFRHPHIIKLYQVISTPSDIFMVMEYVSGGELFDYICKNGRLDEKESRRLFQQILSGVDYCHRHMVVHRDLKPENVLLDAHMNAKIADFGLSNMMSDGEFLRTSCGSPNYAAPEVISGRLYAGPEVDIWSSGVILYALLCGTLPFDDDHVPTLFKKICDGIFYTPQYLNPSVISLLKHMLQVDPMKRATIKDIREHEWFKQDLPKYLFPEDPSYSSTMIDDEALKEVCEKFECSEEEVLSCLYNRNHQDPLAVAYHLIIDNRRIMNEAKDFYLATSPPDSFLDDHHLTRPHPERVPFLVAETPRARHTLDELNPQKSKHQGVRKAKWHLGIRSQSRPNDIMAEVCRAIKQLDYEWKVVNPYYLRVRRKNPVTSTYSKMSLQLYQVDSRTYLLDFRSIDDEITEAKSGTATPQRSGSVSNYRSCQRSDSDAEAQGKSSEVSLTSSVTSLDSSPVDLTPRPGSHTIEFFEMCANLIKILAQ
AMPKα1(h), sequence (Q9Y478 whole entry partner): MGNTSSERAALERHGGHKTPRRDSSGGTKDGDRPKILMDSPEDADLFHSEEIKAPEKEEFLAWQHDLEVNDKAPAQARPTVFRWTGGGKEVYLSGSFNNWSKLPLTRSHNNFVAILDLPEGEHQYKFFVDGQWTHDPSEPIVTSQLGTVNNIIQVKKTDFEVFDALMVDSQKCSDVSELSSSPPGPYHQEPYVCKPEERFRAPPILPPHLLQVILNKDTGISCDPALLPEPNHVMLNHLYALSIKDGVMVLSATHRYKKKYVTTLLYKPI
AMPKα1(h), sequence (P54619 whole entry partner): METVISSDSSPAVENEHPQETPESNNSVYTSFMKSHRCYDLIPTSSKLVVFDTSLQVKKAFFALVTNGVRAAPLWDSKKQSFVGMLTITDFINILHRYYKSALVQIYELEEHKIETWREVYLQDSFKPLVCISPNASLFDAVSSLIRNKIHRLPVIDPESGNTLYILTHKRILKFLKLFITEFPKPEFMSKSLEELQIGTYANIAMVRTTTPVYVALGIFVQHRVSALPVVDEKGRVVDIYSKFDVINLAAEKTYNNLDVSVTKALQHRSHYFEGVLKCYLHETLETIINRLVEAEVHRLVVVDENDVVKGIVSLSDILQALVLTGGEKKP
Outline: as §1

[5] = molecular target: T4, Hck(h) activated (Homo sapiens, UniProt P08631)
T4 construct: purchased Millipore
T4 sequence (P08631 whole entry): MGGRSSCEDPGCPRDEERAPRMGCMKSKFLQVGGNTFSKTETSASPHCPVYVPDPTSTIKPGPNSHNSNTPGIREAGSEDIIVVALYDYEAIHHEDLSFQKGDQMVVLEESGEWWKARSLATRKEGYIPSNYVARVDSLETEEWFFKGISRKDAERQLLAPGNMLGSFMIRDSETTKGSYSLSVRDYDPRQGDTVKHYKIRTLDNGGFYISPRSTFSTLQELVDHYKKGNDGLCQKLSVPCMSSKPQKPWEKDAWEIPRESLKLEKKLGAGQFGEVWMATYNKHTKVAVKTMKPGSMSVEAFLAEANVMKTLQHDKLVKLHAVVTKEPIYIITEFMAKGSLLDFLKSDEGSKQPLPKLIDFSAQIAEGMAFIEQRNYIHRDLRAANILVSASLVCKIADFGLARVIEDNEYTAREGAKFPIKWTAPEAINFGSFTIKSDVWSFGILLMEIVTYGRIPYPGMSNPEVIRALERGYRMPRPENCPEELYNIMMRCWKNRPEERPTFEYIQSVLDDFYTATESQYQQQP
Outline: as §1

[6] = molecular target: TLK2(h) (Homo sapiens, UniProt Q86UE8)
TLK2(h), sequence (Q86UE8 whole entry): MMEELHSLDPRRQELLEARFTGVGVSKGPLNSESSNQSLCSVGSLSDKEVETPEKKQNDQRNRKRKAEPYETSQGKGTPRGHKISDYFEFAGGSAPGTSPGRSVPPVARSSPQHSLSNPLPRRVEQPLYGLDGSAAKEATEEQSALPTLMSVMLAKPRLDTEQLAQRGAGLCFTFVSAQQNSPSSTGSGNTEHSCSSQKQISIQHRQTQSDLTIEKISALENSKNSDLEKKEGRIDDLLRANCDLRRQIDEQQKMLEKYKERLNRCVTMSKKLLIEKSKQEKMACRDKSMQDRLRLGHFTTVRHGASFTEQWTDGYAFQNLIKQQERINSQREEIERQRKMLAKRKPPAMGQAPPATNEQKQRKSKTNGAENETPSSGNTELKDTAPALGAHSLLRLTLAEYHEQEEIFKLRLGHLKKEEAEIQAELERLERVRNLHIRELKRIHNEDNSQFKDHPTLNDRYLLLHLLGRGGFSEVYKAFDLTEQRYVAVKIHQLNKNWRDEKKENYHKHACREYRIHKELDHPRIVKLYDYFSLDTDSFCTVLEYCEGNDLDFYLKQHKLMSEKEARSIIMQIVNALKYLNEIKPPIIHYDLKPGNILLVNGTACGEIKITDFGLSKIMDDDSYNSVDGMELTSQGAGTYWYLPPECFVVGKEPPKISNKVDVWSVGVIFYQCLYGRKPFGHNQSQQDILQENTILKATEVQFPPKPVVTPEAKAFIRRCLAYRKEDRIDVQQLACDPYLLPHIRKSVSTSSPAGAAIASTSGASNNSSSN
Outline: as §1

[7] = molecular target: T5, NEK11(h) (Homo sapiens, UniProt Q8NG66)
T5 sequence (Q8NG66 1-645): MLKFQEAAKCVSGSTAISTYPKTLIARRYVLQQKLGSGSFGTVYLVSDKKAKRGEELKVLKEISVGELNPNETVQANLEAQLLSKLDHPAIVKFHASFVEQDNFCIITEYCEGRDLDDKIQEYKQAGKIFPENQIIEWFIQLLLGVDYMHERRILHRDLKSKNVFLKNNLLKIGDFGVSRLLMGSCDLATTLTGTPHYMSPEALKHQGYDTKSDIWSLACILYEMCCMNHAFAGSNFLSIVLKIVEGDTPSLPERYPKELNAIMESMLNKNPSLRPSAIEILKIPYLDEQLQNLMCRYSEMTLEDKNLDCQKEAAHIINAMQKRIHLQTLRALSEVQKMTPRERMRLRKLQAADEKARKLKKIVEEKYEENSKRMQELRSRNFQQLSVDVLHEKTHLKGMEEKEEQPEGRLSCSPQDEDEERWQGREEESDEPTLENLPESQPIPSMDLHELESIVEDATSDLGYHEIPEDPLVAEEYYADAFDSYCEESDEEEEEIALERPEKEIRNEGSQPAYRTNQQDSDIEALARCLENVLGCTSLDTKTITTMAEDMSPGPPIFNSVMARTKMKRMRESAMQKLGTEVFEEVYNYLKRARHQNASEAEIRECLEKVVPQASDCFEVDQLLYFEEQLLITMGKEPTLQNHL
Outline: as §1

[8] = molecular target: EGFR(L858R)(h) (Homo sapiens, UniProt P00533, L858R)
Outline: as §1

[9] = molecular target: VRK2(h) (Homo sapiens, UniProt Q86Y07)
VRK2(h), sequence (Q86Y07 whole entry): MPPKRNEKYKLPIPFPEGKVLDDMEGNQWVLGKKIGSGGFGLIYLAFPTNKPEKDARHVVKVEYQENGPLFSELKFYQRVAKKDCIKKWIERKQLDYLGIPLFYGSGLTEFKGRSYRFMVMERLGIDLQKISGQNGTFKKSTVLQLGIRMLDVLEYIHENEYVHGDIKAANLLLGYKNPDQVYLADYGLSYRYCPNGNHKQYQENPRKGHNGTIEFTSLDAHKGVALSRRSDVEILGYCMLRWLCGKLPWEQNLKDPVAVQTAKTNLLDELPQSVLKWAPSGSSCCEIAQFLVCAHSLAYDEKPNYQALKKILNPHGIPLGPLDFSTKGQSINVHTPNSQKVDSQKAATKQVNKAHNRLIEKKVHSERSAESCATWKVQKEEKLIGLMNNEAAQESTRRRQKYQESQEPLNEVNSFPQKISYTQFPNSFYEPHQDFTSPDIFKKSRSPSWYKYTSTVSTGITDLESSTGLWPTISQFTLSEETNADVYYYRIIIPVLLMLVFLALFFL
Outline: as §1

| Sequence | PTK5(h) % activity [1] | TSSK2(h) % activity [2] | Bmx(h) % activity [3] | AMPKα1(h) % activity [4] | Hck(h) activated % activity [5] | TLK2(h) % activity [6] | NEK11(h) % activity [7] | EGFR(L858R)(h) % activity [8] | VRK2(h) % activity [9] |
| --- | --- | --- | --- | --- | --- | --- | --- | --- | --- |
| YARAAARQARAKALNRQLGVA (Mammalian) [MMI-0200] | 108% | 91% | 76% | 108% | 100% | 129% | 95% | 120% | – |
| HRRIKAWLKKIKALARQLGVAA (Mammalian) [MMI-0500] | 96% | 92% | 45% | 35% | 67% | 133% | 2% | 26% | 169% |
| KAFAKLAARLYRKALARQLGVAA [MMI-0400] | 129% | 94% | 26% | 87% | 81% | 151% | 33% | 52% | 185% |
| FAKLAARLYRKALARQLGVAA [MMI-0300] | 132% | 98% | – | 71% | 82% | – | 53% | – | 161% |
